Experiment [1] concerns the target CD123 FC融合标签蛋白 (UniProt P26951). The experiment in a line: indirect ELISA, CD123 protein coated at 1 μg/ml, B cell clone supernatant.
Experiment [2] has as its target T1, CD123全长蛋白 (细胞膜上CD123) (UniProt P26951 19-378, limits assumed).
T1 construct: whole, on cells; also called 天然细胞表面CD123蛋白
The experiment in a line: flow cytometry on Raji cells, antibody titration.

These results are taken from patent publication CN115433279A (SUZHOU DIMA BIOTECHNOLOGY CO LTD, dated 2022).

T1 sequence (P26951 19-378 limits assumed): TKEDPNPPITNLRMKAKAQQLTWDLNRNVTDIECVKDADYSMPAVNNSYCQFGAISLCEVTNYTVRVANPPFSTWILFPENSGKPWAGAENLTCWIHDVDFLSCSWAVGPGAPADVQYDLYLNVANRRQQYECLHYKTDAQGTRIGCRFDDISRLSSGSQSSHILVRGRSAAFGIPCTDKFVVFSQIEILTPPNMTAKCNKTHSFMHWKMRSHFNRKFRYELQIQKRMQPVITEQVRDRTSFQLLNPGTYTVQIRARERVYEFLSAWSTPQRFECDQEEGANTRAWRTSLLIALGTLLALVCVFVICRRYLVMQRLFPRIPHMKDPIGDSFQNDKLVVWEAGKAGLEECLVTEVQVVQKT

B1: 命名为1E6的兔重组单克隆抗体 (antibody, V domains shown)
VH: QSVEESGGRLVTPGTPLTLACTVSGFDISSYSMSWVRQAPGKGLEWIGSGIIGGSTYYASWAKGRFTISKTSTTVDLKITSPTTEDTATYFCARFAGTSSTDYYDLWGQGTLVTVSS
VL: TQTPSSVEAAVGGTVTIKCQASQSIDSYLAWYQQKPGQPPKLLIYDTSTLASGVSSRFKGSGSGTQFTLTISDLECADAATYYCQNYWIITTFGFGGGTEVVVK
Take B1: the OD450 in experiment [1] was 1.53 OD450.

B2: 命名为1E5的兔重组单克隆抗体 (antibody, V domains shown)
VH: QSVKESAGGLFKPTDTLTLTCTASGFTISSNAITWVRQAPGNGLEWIGGIDSSGSAYYASWAKSRSTITRNTNLNTVTLKMTSLTAADTATYFCAGGSNIWGPGTLVTVSS
VL: DIVMTQTPSSVSAAVGGTVTIKCQASESIYSYLSWYQQKPGQPPKLLIYLASTLDSGVPSRFKGSGSGTQFTLTISDLECADAATYYCQSSYFSSGSSYGNTFGGGTEVVVK
In the case of B2, in experiment [2], the binding result is given as “binds”. Moreover, the OD450 in experiment [1] was found to be 1.87 OD450.

B3: 命名为5D3的兔重组单克隆抗体 (antibody, V domains shown)
VH: GGAEGGLVKPGGSLELCCKASGFSLSNLRVNWVRQAPGKGLEWIGCIISDSSGTTSYASWVNGRFTLSRDIDQNTGCLQLNSLTVADTAMYYCASRVNITSYDLSLWGQGTLVTVSS
VL: AAVLTQTPSPVSAAVGGTVSISCQSSKSVYNNKWLSWFQQKPGQPPKLLIYSASTLASGVPSRFSGSGSGTDFTLTISDVQCDDAATYYCAGGYSGSSDTYSFGGGTEVVVK
Consider B3, for which, in experiment [1], the OD450 is 1.77 OD450.

B4: 命名为1E4的兔重组单克隆抗体 (antibody, V domains shown)
VH: QSLEESGGRLVTPGTPLTLTCTASGFSLSSYYMSWVRQAPGKGLEYIGIIYDSGSTWYANWAKGRFTISKTSTAVYLEITSPTTEDTATYFCARTGSIYYIWLDLWGQGTLVTVSS
VL: AAVLTQTPSPVSAAVGGSVTISCQSSQTIYKNNDLAWYQQKPGQPPKLLIYEASKLASGVPSRFSGSGSGTQFTLTISGVQCDDAATYYCLGGYDDDDDNTFGGGTEVVVK
notes: In the later assays it was recombinant antibody purified from 293 cells
Take B4: the binding result in experiment [2] is “binds”. Further, the OD450 in experiment [1] is 2.1 OD450.
